Assay results from the RNAGym collection of RNA variant scans (doi:10.1093/molbev/msab373).

B1: Azoarcus group I ribozyme (parent)
chain: GUGCCUUGCGCCGGGAAACCACGCAAGGGAUGGUGUCAAAUUCGGCGAAACCUAAGCGCCCGCCCGGGCGUAUGGCAACGCCGAGCCAAGCUUCGGCGCCUGCGCCGAUGAAGGUGUAGAGACUAGACGGCACCCACCUAAGGCAAACGCUAUGGUGAAGGCAUAGUCCAGGGAGUGGCGAAAGUCACACAAACCGG

Variants of: B1
Experiment: reverse-splicing fitness (ratio to wild type); higher = more active; in vitro selection; Mg2+ level not given
Procedure, shortened: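 An in vitro group I ribozyme library with randomized positions was T7-transcribed and gel-purified. In triplicate, 10 pmol RNA in EPPS pH 7.5 was reacted with 50 pmoles of a 30-nt RNA substrate for 1 h at 37 °C across several added MgCl2 levels (1–48 mM), then stopped with EDTA. Products were reverse transcribed from a substrate-complementary primer, PCR-amplified and sequenced (HiSeq 4000). Fitness is a variant's read proportion after selection over that before, normalised to wild type.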

| Variant | reverse-splicing fitness |
| --- | --- |
| C82G A120U A145U C150A C169U U176A | 0.00242 |
| C82G A120U A145U C150A C169U U176C | 0.0022 |
| C82G A120U A145U C150A C169U U176G | 0.00185 |
| C82G A120U A145U C150A U176A | 0.0083 |
| C82G A120U A145U C150A U176C | 0.0105 |
| C82G A120U A145U C150A U176G | 0.00423 |
| C82G A120U A145U C150G | 0.0173 |
| C82G A120U A145U C150G C169A | 0.00271 |
| C82G A120U A145U C150G C169A U176A | 0.0026 |
| C82G A120U A145U C150G C169A U176C | 0.00187 |
| C82G A120U A145U C150G C169A U176G | 0.00205 |
| C82G A120U A145U C150G C169G | 0.00287 |
| C82G A120U A145U C150G C169G U176A | 0.00237 |
| C82G A120U A145U C150G C169G U176C | 0.0022 |
| C82G A120U A145U C150G C169G U176G | 0.00182 |
| C82G A120U A145U C150G C169U | 0.00283 |
| C82G A120U A145U C150G C169U U176A | 0.003 |
| C82G A120U A145U C150G C169U U176C | 0.00223 |
| C82G A120U A145U C150G C169U U176G | 0.00234 |
| C82G A120U A145U C150G U176A | 0.00715 |
| C82G A120U A145U C150G U176C | 0.0112 |

| Variant | reverse-splicing fitness |
| --- | --- |
| C82G A120U A145U C150G U176G | 0.00267 |
| C82G A120U A145U C150U | 0.131 |
| C82G A120U A145U C150U C169A | 0.00259 |
| C82G A120U A145U C150U C169A U176A | 0.00183 |
| C82G A120U A145U C150U C169A U176C | 0.00197 |
| C82G A120U A145U C150U C169A U176G | 0.00157 |
| C82G A120U A145U C150U C169G | 0.00513 |
| C82G A120U A145U C150U C169G U176A | 0.00248 |
| C82G A120U A145U C150U C169G U176C | 0.00331 |
| C82G A120U A145U C150U C169G U176G | 0.00167 |
| C82G A120U A145U C150U C169U | 0.00488 |
| C82G A120U A145U C150U C169U U176A | 0.00283 |
| C82G A120U A145U C150U C169U U176C | 0.00342 |
| C82G A120U A145U C150U C169U U176G | 0.00159 |
| C82G A120U A145U C150U U176A | 0.0449 |
| C82G A120U A145U C150U U176C | 0.0591 |
| C82G A120U A145U C150U U176G | 0.0126 |
| C82G A120U A145U C169A | 0.00221 |
| C82G A120U A145U C169A U176A | 0.00245 |
| C82G A120U A145U C169A U176C | 0.00205 |
| C82G A120U A145U C169A U176G | 0.0013 |

| Variant | reverse-splicing fitness |
| --- | --- |
| C82G A120U A145U C169G | 0.00637 |
| C82G A120U A145U C169G U176A | 0.00234 |
| C82G A120U A145U C169G U176C | 0.00292 |
| C82G A120U A145U C169G U176G | 0.00119 |
| C82G A120U A145U C169U | 0.00672 |
| C82G A120U A145U C169U U176A | 0.00334 |
| C82G A120U A145U C169U U176C | 0.00402 |
| C82G A120U A145U C169U U176G | 0.00148 |
| C82G A120U A145U U176A | 0.0782 |
| C82G A120U A145U U176C | 0.116 |
| C82G A120U A145U U176G | 0.02 |
| C82G A120U C150A | 0.0159 |
| C82G A120U C150A C169A | 0.00401 |
| C82G A120U C150A C169A U176A | 0.00432 |
| C82G A120U C150A C169A U176C | 0.0035 |
| C82G A120U C150A C169A U176G | 0.00205 |
| C82G A120U C150A C169G | 0.00295 |
| C82G A120U C150A C169G U176A | 0.00631 |
| C82G A120U C150A C169G U176C | 0.00368 |
| C82G A120U C150A C169G U176G | 0.00199 |
| C82G A120U C150A C169U | 0.00426 |

| Variant | reverse-splicing fitness |
| --- | --- |
| C82G A120U C150A C169U U176A | 0.00396 |
| C82G A120U C150A C169U U176C | 0.00296 |
| C82G A120U C150A C169U U176G | 0.00185 |
| C82G A120U C150A U176A | 0.0102 |
| C82G A120U C150A U176C | 0.0129 |
| C82G A120U C150A U176G | 0.00569 |
| C82G A120U C150G | 0.0146 |
| C82G A120U C150G C169A | 0.00734 |
| C82G A120U C150G C169A U176A | 0.00571 |
| C82G A120U C150G C169A U176C | 0.00402 |
| C82G A120U C150G C169A U176G | 0.00278 |
| C82G A120U C150G C169G | 0.0053 |
| C82G A120U C150G C169G U176A | 0.00454 |
| C82G A120U C150G C169G U176C | 0.00277 |
| C82G A120U C150G C169G U176G | 0.00218 |
| C82G A120U C150G C169U | 0.00456 |
| C82G A120U C150G C169U U176A | 0.00369 |
| C82G A120U C150G C169U U176C | 0.00347 |
| C82G A120U C150G C169U U176G | 0.0022 |
| C82G A120U C150G U176A | 0.0062 |
| C82G A120U C150G U176C | 0.0103 |
